According to the supplement of paper PMC10567573:

B1: SLC25A39 (parent)
chain: LTSDLYAPMVAGALARLGTVTVIS
B2: RIPK4 (parent)
chain: VSVNAQTLDGRTPLHLAAQRGHYR

Variants of: B1
Experiment: protein stability index of a GFP-peptide fusion (GPS, HEK-293T) (PSI 1-6); higher = more stable
Settings: c terminus: a fixed tail appended
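Note: lentivirally expressed fusions sorted by FACS into six bins by GFP to DsRed ratio, PSI derived from sequencing read proportions per bin multiplied by bin number.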

Protein stability index, by site and new letter:
Y6: W 3.76, C 2.31, P 1.98, E 2, H 2.34, A 2.37, M 2.09, Q 2.01, S 1.34, G 1.13, D 1.55, T 1.82, N 1.34, R 1.47, F 3.72, V 2.13
L14: G 2.76, Y 3.67, N 1.69, Q 1.53, W 5.23, A 1.79, T 1.58, S 1.69, K 1, P 2.24, C 3.43, E 1.91, F 3.32, H 1.12, V 2.83, D 1.83, R 1.72
A15: S 3.49, T 3.55, P 1.97, G 2.69, Q 3.66, L 1.45, R 2.1, D 1.93, F 2.6, N 1.87, E 1.39, M 4.42, K 3.12
T21: N 2.79, F 3.5, H 2.26, M 2.7, W 3.97, D 3.1, R 2.12, E 2.09, V 2.03, Q 2.95
S24: W 3.06, T 4.15, K 1.61, G 3, I 1.56, N 1.91, P 2.21, H 3.6, R 2.26, E 2.61, D 3.34, Q 1.45, C 3.08
G12: S 1.53, I 3.04, Y 2.21, R 3.52, P 1.23, Q 4.46, V 3.9, L 3.83, H 2.64, K 3.64
D4: Y 5.3
L5: Y 3.05, C 3.99, E 1.69, G 2.8, P 2.31, S 2.12, I 1, H 1.34, Q 1.65, D 1.89, M 2.95, T 1.48, R 2.09, K 3.21, N 1.89, A 2.14
A7: T 1.62, R 3.29, H 2.38, P 1.87, C 2.42, L 3.74, I 4.33, N 1.97, K 1.61, Q 2.86, S 2.38, D 1.17, V 1.96
A11: H 2.69, T 2.81, K 2.39, Y 4.45, N 2.3, D 1.65, L 2.5, M 2.95, P 3.19, Q 1.65, F 3.02
G18: P 2.57, H 4.48, A 2.61, D 2.53, W 3.57, K 2.53, T 3.39, R 2.66
P8: I 1.62, S 3.97, A 1.5, T 3.06, N 1.7, W 2.68, D 3.54, L 2.02, C 2.52, E 3.86, M 3.46
L17: S 2.51, I 3.23, N 1.96, V 2.22, Y 2.12, E 2.71, D 2.47, R 1.1, A 1.92, H 2.7, W 4.43, F 2.95, G 3.15, K 1.75, C 1.56, T 1.52, P 1.69
M9: T 2.35, R 1.36, E 2.54, G 1.6, N 1.01, Y 3.86, L 3.65, C 1.65, A 2.21, D 1.78, P 1.5, I 2.76, H 1.77, K 1.52, S 1.75, Q 2.57
R16: Q 3.11, F 4.13, I 2.97, M 3.22, D 2.58, E 1.76, W 2.85, P 1.98, S 2.41, Y 2.35, A 2.1, L 2.76, N 1.5
I23: Y 2.31, P 1.8, N 1.98, E 2.54, S 1.95, K 2.04, G 2.18, L 2.75, R 1.87, D 2.3, Q 2.56
V10: F 2.85, W 2.29, P 1.85, T 3.25, Q 1.96, M 4.25, E 1.21, C 3.02, Y 2.63, H 2.45, A 3.92, K 2.15, R 1.49, N 1.96, D 1.9, S 2.6, G 2.72
A13: C 2.73, Q 2.61, V 2.79, K 3.56, R 1.79, S 1.38, N 2.09, D 1.74, H 2.47, T 1.75, P 1.16, M 3.17
V20: I 3.37, D 2.73, W 1.77, F 2.09, K 2.05, H 3.15, G 1.99, T 1.02, P 1.45, S 2.26, R 1.76, Y 3.19, E 2.43, N 2.54
V22: S 2.31, A 2.58, L 3.04, T 2.04, D 1.49, K 1.74, R 2.82, F 2.47, Y 1.6, N 1.11, E 2.08, P 1.61, C 3.43
T19: K 2.21, G 1.91, H 1.94, D 1.76, V 2.87, Q 1.8

Variants of: B2
Experiment: as above
Settings: c terminus: a fixed tail appended

Protein stability index: each site, then its substitutions
V1: T 3.78, Q 3.99, F 3.39, K 3.74, L 3.98, H 3.79, S 3.62, C 2.54, G 3.76, W 3.5, P 3.85, A 3.94, D 4.66, M 4.21, I 3.54, Y 3.59, R 4.06, E 3.97, N 4.12
S2: I 2.18, V 2.22, P 3.75, Y 2.82, R 3.33, H 2.42, N 3.73, M 2.89, C 2.93, A 3.24, F 2.57, W 2.3, K 3.41, E 3.27, D 4.08, G 3.97, L 2.86, T 2.91, Q 3.22
V3: M 3.73, A 3.85, H 4.67, K 3.6, Q 4.22, N 4.49, L 3.35, F 2.96, T 3.53, D 4.13, P 3.83, E 4.86, I 2.67, R 4.33, G 3.9, C 3.12, Y 2.75, S 3.97, W 2.69
N4: V 2.53, Y 3.12, F 2.06, E 3.17, T 3.04, M 2.66, K 3.51, D 3.86, W 2.06, C 3.18, G 3.3, H 3.46, L 2.69, Q 3.41, R 3.21, A 3.17, I 2.44, P 3.42, S 2.86
